Results taken from patent publication US20230143091A1 (SORRISO PHARMACEUTICALS, published 2023).

T1: IL-7R (as used in the IL-7/IL-7R neutralisation ELISA) (UniProt P16871 21-239, limits assumed)
T1 sequence (looked up): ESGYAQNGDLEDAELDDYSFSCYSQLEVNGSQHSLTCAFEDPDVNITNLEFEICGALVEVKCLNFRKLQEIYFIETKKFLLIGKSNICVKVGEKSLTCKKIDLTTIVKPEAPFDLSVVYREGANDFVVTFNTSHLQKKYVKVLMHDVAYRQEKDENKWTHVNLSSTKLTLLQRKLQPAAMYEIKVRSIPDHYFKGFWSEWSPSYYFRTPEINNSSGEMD

T2: IL-7R on human lymphocytes (hPBMCs) (human, UniProt P16871 21-459)
T2 sequence (looked up): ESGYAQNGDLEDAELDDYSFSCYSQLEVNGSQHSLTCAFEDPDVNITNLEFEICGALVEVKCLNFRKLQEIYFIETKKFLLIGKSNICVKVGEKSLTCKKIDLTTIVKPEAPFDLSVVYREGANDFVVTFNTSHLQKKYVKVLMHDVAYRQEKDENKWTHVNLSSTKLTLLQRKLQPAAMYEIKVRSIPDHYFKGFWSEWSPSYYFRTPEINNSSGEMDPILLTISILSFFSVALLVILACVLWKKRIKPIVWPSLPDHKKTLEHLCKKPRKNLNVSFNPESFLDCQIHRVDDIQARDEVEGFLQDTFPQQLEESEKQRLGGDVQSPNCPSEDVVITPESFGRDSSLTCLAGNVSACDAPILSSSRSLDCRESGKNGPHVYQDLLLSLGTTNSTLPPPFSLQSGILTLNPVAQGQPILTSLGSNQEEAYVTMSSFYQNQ


Assays:
[1] = target: T1, IL-7R (as used in the IL-7/IL-7R …); assay: IL-7/IL-7R neutralisation ELISA; blocked ligand IL-7, bound IL-7 detected with biotinylated anti-hIL-7 and Extravidin-HRP
[2] = target: T2, IL-7R on human lymphocytes (hPBMCs); assay: cell-based or functional assay
[3] = target: T3, human TNFα (human, UniProt P01375 77-233); assay: competition ELISA on plate-coated human TNFα; competitor 2 nM biotinylated adalimumab, detected with ExtrAvidin-HRP
T3 construct: also called TNF-alpha; Tumour necrosis factor-alpha
T3 sequence (P01375 77-233 limits assumed): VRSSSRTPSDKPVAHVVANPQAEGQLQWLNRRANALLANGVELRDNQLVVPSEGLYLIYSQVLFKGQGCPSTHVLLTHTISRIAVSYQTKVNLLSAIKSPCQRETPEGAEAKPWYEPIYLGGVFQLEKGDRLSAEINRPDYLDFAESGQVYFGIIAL
Procedure: ELISA plates were coated with 100 ng/mL human TNFα in 250 μg/mL bovine serum albumin (BSA) in phosphate buffered saline (1×PBS) and blocked with 1% BSA in 1×PBS.

IC50 (read off the curve) [1] | Binder | other results
~0.4 nM | FU3K after trypsin digestion (other, A mixture of two separate monomers, not a complex; also called post-digestion FU3K; ID-38F and ID-A62U monomer arms released from FU3K) VHH 1: DVQLVESGGGLVQPGGSLKLSCAASGFDFSSHWMYWVRQAPGKELEWLSEINTNGLITHYGDSVKGRFTVSRNNAANKMYLELTRLEPEDTALYYCARNQHGLNKGQGTQVTVSSGGGGSGGGGSK VHH 2: GGGGSGGGGSEVQLVESGGGLVQAGGSLRLSCESSISTFSSDAMGWFRQAPGKELEFLAAIGWSGAVTHYSDSVKGRFTISRDNAKNTVYLQMNSLRAEDTGRYYCAEDYDTDVWQYWGQGTQVTVSS | –
– | V7R-2E9 (VHH) VHH: EVQLVESGGGLVQAGGSLRLSCESSISTFSSDAMGWFRQAPGKEREFLAAIGWSGAVTHYSDSVQGRFTISRDNAKNTVYLQMNSLKSEDTGRYYCAEDYDTDVWQYWGQGTQVTVSS | IL-7 induced pSTAT5 in hPBMCs EC50 nM [2]: 2.86 nM
0.1 to 0.2 nM | ID-A62U (VHH, Produced in S. cerevisiae; Comprises E1D and R45L mutations relative to ID-A40U) VHH: DVQLVESGGGLVQAGGSLRLSCESSISTFSSDAMGWFRQAPGKELEFLAAIGWSGAVTHYSDSVKGRFTISRDNAKNTVYLQMNSLRAEDTGRYYCAEDYDTDVWQYWGQGTQVTVSS | –
– | ID-38F (VHH) VHH: DVQLVESGGGLVQPGGSLKLSCAASGFDFSSHWMYWVRQAPGKELEWLSEINTNGLITHYGDSVKGRFTVSRNNAANKMYLELTRLEPEDTALYYCARNQHGLNKGQGTQVTVSS | binding result [3]: binds
~0.2 nM | FU3K bihead (bispecific antibody, Produced in S. cerevisiae; also called pre-digestion FU3K; heterobihead) DVQLVESGGGLVQPGGSLKLSCAASGFDFSSHWMYWVRQAPGKELEWLSEINTNGLITHYGDSVKGRFTVSRNNAANKMYLELTRLEPEDTALYYCARNQHGLNKGQGTQVTVSSGGGGSGGGGSKGGGGSGGGGSEVQLVESGGGLVQAGGSLRLSCESSISTFSSDAMGWFRQAPGKELEFLAAIGWSGAVTHYSDSVKGRFTISRDNAKNTVYLQMNSLRAEDTGRYYCAEDYDTDVWQYWGQGTQVTVSS | –
